Patent US20230324389

B1: MMP2 (protein)
chain: YNFFPRKPKWDKNQITYRIIGYTPDLDPETVDDAFARAFQVWSDVTPLRFSRIHDGEADIMINFGRWEHGDGYPFDGKDGLLAHAFAPGTGVGGDSHFDDDELWTLGEGQVVRVKYGNADGEYCKFPFLFNGKEYNSCTDTGRSDGFLWCSTTYNFEKDGKYGFCPHEALFTMGGNAEGQPCKFPFRFQGTSYDSCTTEGRTDGYRWCGTTEDYDRDKKYGFCPETAMSTVGGNSEGAPCVFPFTFLGNKYESCTSAGRSDGKMWCATTANYDDDRKWGFCPDQGYSLFLVAAHEFGHAMGLEHSQDPGALMAPIYTYTKNFRLSQDDIKGIQELYGASPDIDLGTGPTPTLGPVTPEICKQDIVFDGIAQIRGEIFFFKDRFIWRTVTPRDKPMGPLLVATFWPELPEKIDAVYEAPQEEKAVFFAGNEYWIYSASTLERGYPKPLTSLGLPPDVQRVDAAFNWSKNKKTYIFAGDKFWRYNEVKKKMDPGFPKLIADAWNAIPDNLDAVVDLQGGGHSYFFKGAYYLKLENQSLKSVKFGSIKSDWLGC
B2: MMP7 (protein)
chain: YSLFPNSPKWTSKVVTYRIVSYTRDLPHITVDRLVSKALNMWGKEIPLHFRKVVWGTADIMIGFARGAHGDSYPFDGPGNTLAHAFAPGTGLGGDAHFDEDERWTDGSSLGINFLYAATHELGHSLGMGHSSDPNAVMYPTYGNGDPQNFKLSQDDIKGIQKLYGKRSNSRKK
B3: Legumain (protein)
chain: VPIDDPEDGGKHWVVIVAGSNGWYNYRHQADACHAYQIIHRNGIPDEQIVVMMYDDIAYSEDNPTPGIVINRPNGTDVYQGVPKDYTGEDVTPQNFLAVLRGDAEAVKGIGSGKVLKSGPQDHVFIYFTDHGSTGILVFPNEDLHVKDLNETIHYMYKHKMYRKMVFYIEACESGSMMNHLPDNINVYATTAANPRESSYACYYDEKRSTYLGDWYSVNWMEDSDVEDLTKETLHKQYHLVKSHTNTSHVMQYGNKTISTMKVMQFQGMKRKASSPVPLPPVTHLDLTPSPDVPLTIMKRKLMNTN
B4: ST14/Matriptase (protein)
chain: GSDEKDCDCGLRSFTRQARVVGGTDADEGEWPWQVSLHALGQGHICGASLISPNWLVSAAHCYIDDRGFRYSDPTQWTAFLGLHDQSQRSAPGVQERRLKRIISHPFFNDFTFDYDIALLELEKPAEYSSMVRPICLPDASHVFPAGKAIWVTGWGHTQYGGTGALILQKGEIRVINQTTCENLLPQQITPRMMCVGFLSGGVDSCQGDSGGPLSSVEADGRIFQAGVVSWGDGCAQRNKPGVYTRLPLFRDWIKENTGV

biological target: 818-C1MA

| Protein | unmasking (protease cleavage) rate |
| --- | --- |
| B1 | MMP2: 818-P1>818-C1MA>818-C1 MB |
| B2 | MMP1: 818-P1>818-C1MA=818-C1 MB |
| B3 | Legumain demonstrated minimal unmasking differences |
| B4 | ST14 unmaking was characterized by 818-C1MA>818-P1>818-C1 MB |

biological target: 818-C1 MB

| Protein | unmasking (protease cleavage) rate |
| --- | --- |
| B1 | MMP2: 818-P1>818-C1MA>818-C1 MB |
| B2 | MMP1: 818-P1>818-C1MA=818-C1 MB |
| B3 | Legumain demonstrated minimal unmasking differences |
| B4 | ST14 unmaking was characterized by 818-C1MA>818-P1>818-C1 MB |

biological target: 818-P1

| Protein | unmasking (protease cleavage) rate |
| --- | --- |
| B1 | MMP2: 818-P1>818-C1MA>818-C1 MB |
| B2 | MMP1: 818-P1>818-C1MA=818-C1 MB |
| B3 | Legumain demonstrated minimal unmasking differences |
| B4 | ST14 unmaking was characterized by 818-C1MA>818-P1>818-C1 MB |
